Results published in paper PMC5469197, “ANGUSTIFOLIA, a Plant Homolog of CtBP/BARS Localizes to Stress Granules and Regulates Their Formation” (Frontiers in Plant Science, 2017).

Tests used:
Test in all cases: co-IP; LUMIER in HEK293TN cells: Prot-A fusion co-transfected with Renilla luciferase fusion (AN always the luciferase fusion with the interactors); luciferase activity before (input) and after pulldown; percentage pulldown = pulldown/input x 100; empty vectors as negative control; positive if more than two times the background
[1] = molecular target: PROTEIN KINASE SU… PROTEIN (AIK1), Prot-A fusion (Arabidopsis thaliana)
[2] = molecular target: T1, EIF (ISO) 4E, Prot-A fusion (Arabidopsis thaliana, UniProt O04663 1-198); conditions: partners not purified
T1 construct: EIF(iso)4E, Arabidopsis thaliana, AT5G35620; CDS amplified from Col-0 cDNA; source: HEK293TN cells, transfected; not shown: Protein A (Staphylococcus aureus), N-terminal, kept
T1 sequence (looked up): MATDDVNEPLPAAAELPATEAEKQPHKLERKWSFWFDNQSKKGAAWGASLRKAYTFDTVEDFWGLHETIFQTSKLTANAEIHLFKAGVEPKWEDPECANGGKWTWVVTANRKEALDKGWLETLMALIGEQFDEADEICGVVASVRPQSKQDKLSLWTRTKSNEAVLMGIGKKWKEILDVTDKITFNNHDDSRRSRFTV

[3] = molecular target: T2, PROTEIN MEI2-LIKE 5 (ATML5), Prot-A fusion (Arabidopsis thaliana, UniProt Q8VWF5 1-800); conditions: partners not purified
T2 construct: Protein MEI2-like 5, Arabidopsis thaliana, AT1G29400; CDS amplified from Col-0 cDNA; source: HEK293TN cells, transfected; not shown: Protein A (Staphylococcus aureus), N-terminal, kept
T2 sequence (looked up): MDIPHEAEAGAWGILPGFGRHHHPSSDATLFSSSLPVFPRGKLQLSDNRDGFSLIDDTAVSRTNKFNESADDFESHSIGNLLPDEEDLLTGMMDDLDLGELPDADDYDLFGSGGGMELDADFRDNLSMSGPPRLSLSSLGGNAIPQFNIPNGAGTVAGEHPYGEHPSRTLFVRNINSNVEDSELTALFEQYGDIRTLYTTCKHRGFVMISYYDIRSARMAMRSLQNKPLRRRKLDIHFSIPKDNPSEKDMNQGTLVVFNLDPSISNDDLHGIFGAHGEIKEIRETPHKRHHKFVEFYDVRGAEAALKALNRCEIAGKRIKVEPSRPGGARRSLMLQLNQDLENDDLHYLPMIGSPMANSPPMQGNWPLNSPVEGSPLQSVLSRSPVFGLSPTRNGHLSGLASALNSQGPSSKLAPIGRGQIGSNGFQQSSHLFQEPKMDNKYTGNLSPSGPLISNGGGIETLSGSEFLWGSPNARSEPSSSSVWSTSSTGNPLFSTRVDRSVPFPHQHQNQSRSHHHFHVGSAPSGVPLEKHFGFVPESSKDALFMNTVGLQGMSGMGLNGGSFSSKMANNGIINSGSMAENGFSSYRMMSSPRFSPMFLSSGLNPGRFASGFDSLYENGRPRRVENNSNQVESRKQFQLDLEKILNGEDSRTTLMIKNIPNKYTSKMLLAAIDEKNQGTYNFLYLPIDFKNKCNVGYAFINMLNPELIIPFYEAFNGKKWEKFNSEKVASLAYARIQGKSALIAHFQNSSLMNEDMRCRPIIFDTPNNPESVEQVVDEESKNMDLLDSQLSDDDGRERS

[4] = molecular target: T3, PO…-BINDING PROTEIN RBP47C′, Prot-A fusion (Arabidopsis thaliana, UniProt Q9SX80 1-434); conditions: partners not purified
T3 construct: RBP47C′, Arabidopsis thaliana, AT1G47500; CDS amplified from Col-0 cDNA; source: HEK293TN cells, transfected; not shown: Protein A (Staphylococcus aureus), N-terminal, kept
T3 sequence (looked up): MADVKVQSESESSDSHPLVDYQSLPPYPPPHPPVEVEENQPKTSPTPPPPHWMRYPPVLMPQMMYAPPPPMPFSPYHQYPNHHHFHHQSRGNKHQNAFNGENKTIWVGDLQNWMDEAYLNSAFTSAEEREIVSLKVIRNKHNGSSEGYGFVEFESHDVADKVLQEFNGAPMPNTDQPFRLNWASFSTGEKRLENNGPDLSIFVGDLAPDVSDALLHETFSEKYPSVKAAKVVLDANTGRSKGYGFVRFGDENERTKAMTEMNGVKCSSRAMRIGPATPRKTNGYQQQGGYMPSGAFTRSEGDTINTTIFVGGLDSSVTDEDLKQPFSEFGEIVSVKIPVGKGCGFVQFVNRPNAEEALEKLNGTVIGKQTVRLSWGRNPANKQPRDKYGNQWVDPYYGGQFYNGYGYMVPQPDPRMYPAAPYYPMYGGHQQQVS

[5] = molecular target: T4, KH DOMAIN-CONTAINING PROTEIN (AT2G38610), Prot-A fusion (Arabidopsis thaliana, UniProt Q9ZVI3 1-286); conditions: partners not purified
T4 construct: KH domain-containing protein, Arabidopsis thaliana, AT2G38610; CDS amplified from Col-0 cDNA; source: HEK293TN cells, transfected; not shown: Protein A (Staphylococcus aureus), N-terminal, kept
T4 sequence (looked up): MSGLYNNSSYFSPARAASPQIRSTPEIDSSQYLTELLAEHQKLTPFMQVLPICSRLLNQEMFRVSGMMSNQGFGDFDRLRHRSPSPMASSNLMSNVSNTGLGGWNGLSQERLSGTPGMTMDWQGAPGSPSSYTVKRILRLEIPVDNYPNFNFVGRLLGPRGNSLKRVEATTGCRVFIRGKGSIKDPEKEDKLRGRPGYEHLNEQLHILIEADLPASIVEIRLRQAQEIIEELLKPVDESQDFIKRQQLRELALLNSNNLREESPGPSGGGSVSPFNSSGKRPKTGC

PROTEIN KINASE SU… PROTEIN (AIK1), Prot-A fusion (Arabidopsis thaliana), sequence (main, as listed by the source): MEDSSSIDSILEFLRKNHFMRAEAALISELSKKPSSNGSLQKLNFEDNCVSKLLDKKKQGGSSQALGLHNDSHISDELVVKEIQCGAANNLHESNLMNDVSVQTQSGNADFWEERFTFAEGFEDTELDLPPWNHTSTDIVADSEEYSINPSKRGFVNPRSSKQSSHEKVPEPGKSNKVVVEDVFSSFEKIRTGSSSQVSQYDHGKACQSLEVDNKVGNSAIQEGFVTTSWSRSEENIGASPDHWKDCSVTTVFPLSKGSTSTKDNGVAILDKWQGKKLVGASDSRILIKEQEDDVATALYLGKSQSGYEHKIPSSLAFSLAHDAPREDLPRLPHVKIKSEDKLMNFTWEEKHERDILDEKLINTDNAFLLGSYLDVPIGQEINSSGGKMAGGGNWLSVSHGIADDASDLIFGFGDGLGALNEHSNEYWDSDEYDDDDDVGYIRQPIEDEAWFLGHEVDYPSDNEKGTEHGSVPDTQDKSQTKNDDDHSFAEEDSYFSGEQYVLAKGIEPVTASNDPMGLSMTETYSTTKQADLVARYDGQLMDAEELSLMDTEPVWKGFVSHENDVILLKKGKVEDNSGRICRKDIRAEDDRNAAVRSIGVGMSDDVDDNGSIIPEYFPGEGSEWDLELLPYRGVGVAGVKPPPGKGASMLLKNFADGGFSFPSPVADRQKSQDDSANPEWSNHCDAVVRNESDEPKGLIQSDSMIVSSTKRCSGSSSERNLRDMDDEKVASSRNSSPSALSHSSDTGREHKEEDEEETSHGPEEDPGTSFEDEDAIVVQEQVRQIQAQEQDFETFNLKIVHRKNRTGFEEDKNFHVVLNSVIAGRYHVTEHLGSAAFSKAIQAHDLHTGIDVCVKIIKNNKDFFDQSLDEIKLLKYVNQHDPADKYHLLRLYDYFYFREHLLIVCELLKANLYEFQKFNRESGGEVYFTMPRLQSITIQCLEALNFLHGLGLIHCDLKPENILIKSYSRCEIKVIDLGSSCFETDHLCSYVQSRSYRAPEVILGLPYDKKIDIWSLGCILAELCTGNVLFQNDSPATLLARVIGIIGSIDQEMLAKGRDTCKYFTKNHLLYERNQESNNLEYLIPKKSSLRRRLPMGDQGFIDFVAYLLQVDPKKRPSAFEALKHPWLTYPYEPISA

fold change from background [1]: 223 fold | percentage pulldown [1]: 36% | fold change from background [2]: 4.09 fold | percentage pulldown [2]: 0.39% | fold change from background [3]: 5.04 fold | percentage pulldown [3]: 0.47% | fold change from background [4]: 3.07 fold | percentage pulldown [4]: 0.29% | fold change from background [5]: 2.93 fold | percentage pulldown [5]: 0.28%
B1: AN, Renilla luciferase fusion (LUMIER) (natural protein, Arabidopsis thaliana, UniProt O23702 1-636, looked up)
chain: MSKIRSSATMPHRDQPSPASPHVVTLNCIEDCALEQDSLAGVAGVEYVPLSRIADGKIESATAVLLHSLAYLPRAAQRRLRPHQLILCLGSADRAVDSTLAADLGLRLVHVDTSRAEEIADTVMALILGLLRRTHLLSRHALSASGWLGSLQPLCRGMRRCRGMVLGIVGRSVSARYLASRSLAFKMSVLYFDVPEGDEERIRPSRFPRAARRMDTLNDLLAASDVISLHCALTNDTVQILNAECLQHIKPGAFLVNTGSCQLLDDCAVKQLLIDGTIAGCALDGAEGPQWMEAWVKEMPNVLILPRSADYSEEVWMEIREKAISILHSFFLDGVIPSNTVSDEEVEESEASEEEEQSPSKHEKLAIVESTSRQQGESTLTSTEIVRREASELKESLSPGQQHVSQNTAVKPEGRRSRSGKKAKKRHSQQKYMQKTDGSSGLNEESTSRRDDIAMSDTEEVLSSSSRCASPEDSRSRKTPLEVMQESSPNQLVMSSKKFIGKSSELLKDGYVVALYAKDLSGLHVSRQRTKNGGWFLDTLSNVSKRDPAAQFIIAYRNKDTVGLRSFAAGGKLLQINRRMEFVFASHSFDVWESWSLEGSLDECRLVNCRNSSAVLDVRVEILAMVGDDGITRWID
notes: ANGUSTIFOLIA (AN), Arabidopsis thaliana, AT1G01510; CDS amplified from Col-0 cDNA; in the dimerisation test the second copy must have been the N-terminal protein A fusion (surmised from the LUMIER format); also called wild-type AN; source: HEK293TN cells, transfected; not shown: Renilla reniformis luciferase, N-terminal, kept
